One assay addresses T1, CHO-S expressed hOX40L (Homo sapiens, UniProt P23510).
T1 construct: expressed in transfected cells
T1 sequence (P23510 1-183): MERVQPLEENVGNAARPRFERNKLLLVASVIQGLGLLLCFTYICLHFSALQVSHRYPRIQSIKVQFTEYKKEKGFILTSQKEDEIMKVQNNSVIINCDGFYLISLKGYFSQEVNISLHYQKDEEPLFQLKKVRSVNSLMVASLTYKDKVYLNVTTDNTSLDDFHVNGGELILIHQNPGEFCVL
Nature of the assay: FACS binding to CHO-S expressed hOX40L. As to conditions: binding to hOX40L expressed on CHO-S cells; YES. As for the experimental part: CHO-S cells expressing hOX40L or untransfected CHO-S cells, diluted in FACS buffer (PBS+1% w/v BSA+0.1% w/v NaN3) were distributed to a 96 well V-bottom plate (Greiner) at a density of 1×10^5 cells per well. Cells were washed with 150 μL of PBS and centrifuged at 300×g for 3 min. Supernatant was aspirated and 150 μL of PBS added. This wash step was repeated.
25 μL of hybridoma supernatant or purified antibody from hybridoma supernatant diluted in FACS buffer was added to the washed cells and incubated for 10-15 minutes. Reference Antibody or mouse IgG1 control antibody (Sigma) were diluted in FACS buffer to 20 μg/mL and 25 μL added to cells. 25 μL of human OX40R Fc (in-house) diluted to 1000 ng/mL in FACS buffer were then added to wells. Cells were incubated at 4° C. for 30 minutes.
Cells were washed twice with 150 μL of PBS centrifuging after each wash step and aspirating supernatant (centrifuged at 300×g for 3 minutes).
To detect antibody and receptor binding, 50 μL of Goat anti-human IgG-PE (Jackson ImmunoResearch) and APC anti-mouse IgG (Jackson ImmunoResearch) diluted 1 in 500 in FACS buffer was added to the cells. Cells were incubated 30 minutes at 4° C. in the dark.
To fix cells 100 μL 2% v/v paraformaldehyde was added and cells incubated for 30 minutes at 4° C., cells were pelleted by centrifugation 300×g and the plates and resuspended in 50 μL of FACS buffer. PE and APC signal intensity (geomean) was measured by flow cytometry using a BD FACS Array instrument.
% of control binding was calculated using geomean fluorescence as described in equation 1 where total binding was defined as reference antibody at 10 μg/mL and non-specific binding as mouse IgG1 antibody at 10 μg/mL. % receptor binding was calculated using Equation 3.
Binding of antibodies purified from hybridoma supernatant was carried out as described herein.

The target in another assay is T2, recombinant hOX40L (Homo sapiens, UniProt P23510).
T2 construct: cDNA encoding the extracellular domain of human OX40L was cloned into a pREP4 expression plasmid; made in house; host or cells: FreeStyle CHO-S, transient expression
T2 sequence (P23510 with tags, fused parts or gaps): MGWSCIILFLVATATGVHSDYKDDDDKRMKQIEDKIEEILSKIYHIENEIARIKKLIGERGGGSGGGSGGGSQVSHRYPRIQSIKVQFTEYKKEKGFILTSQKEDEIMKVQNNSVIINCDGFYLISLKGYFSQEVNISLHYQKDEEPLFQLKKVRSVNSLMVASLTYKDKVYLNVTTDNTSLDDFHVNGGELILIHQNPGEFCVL
Nature of the assay: Surface plasmon resonance, apparent affinity to human OX40L. As to conditions: SPR, 25° C., OX40L at 256 nM; CNROR = Cannot resolve off-rate. Format: binding. As for the experimental part:
(§1) SPR analysis was carried out using the ProteOn™ XPR36 Array System (BioRad). Anti-mouse IgG (GE Healthcare BR-1008-38) was immobilised on a GLM biosensor surface using amine coupling, the surface was then blocked using 1 M ethanolamine. Test antibodies were captured on this surface and recombinant hOX40L (human and rhesus) were used at a single concentration of 256 nM, binding sensorgrams were double referenced using a buffer injection (i.e. 0 nM) to remove baseline drift and injection artefacts. Apparent affinities for the OX40L-antibody interaction were determined using the 1:1 model inherent to the ProteOn XPR36 analysis software. The assay was run using HBS-EP (Teknova) as running buffer and carried out at 25° C.
For orientation: Surface plasmon resonance follows binding to a sensor surface in real time, without labels.

Another assay deals with Rhesus monkey OX40L. Put plainly: Surface plasmon resonance, apparent affinity to rhesus OX40L. As to conditions: SPR, 25° C., OX40L at 256 nM; CNROR = Cannot resolve off-rate. It is filed as binding, Rhesus (Macaca mulatta). The protocol:
as §1

The test system of the next assay is allogeneic PBMC/PBMC MLR. Nature of the assay: Allogeneic PBMC/PBMC Mixed Lymphocyte Reaction (IFN-γ release). It is filed as cell-based, human. As to conditions: compared to the isotype control; one valid experiment. As for the experimental part: PBMCs are isolated from leukoreduction system chambers (NHSBT) using Ficoll-Paque plus (GE Healthcare) density gradient centrifugation. PBMC are pre-incubated with mitomycin C (Sigma) at 10 μg/mL in PBS for one hour at 37° C. Cells are then washed 3 times in PBS centrifuging at 300×g for 3 minutes, aspirating the supernatant after each wash. Allogeneic PBMC (not treated with mitomycin C) are added to a 96-well plate in RPMI supplemented with 10% v/v FBS at a concentration of 2×10^6/ml, 50 μL/well. Anti-OX40L antibodies are diluted in culture media and added to 96 well plate containing PBMC (not mitomycin C treated) at 50 μL/well. Mitomycin C treated PBMC are then added to allogeneic PBMC (not treated with mitomycin C) in 96-well plate at a final cell ratio in range of 1:1 to 4:1 mitomycin C treated to non mitomycin C based on number of cells/well. The cells are incubated for five days at 37° C./5% CO2. After five days TNF-α, IFN-γ, and IL-2 are measured by duoset ELISA (R&D Systems) according to manufacturer's recommendations. Proliferation is measured by CFSE dilution according to manufacturer's recommendations.
PBMCs were isolated from leukoreduction system chambers (NHSBT) using Ficoll-Paque plus (GE Healthcare) density gradient centrifugation. […] After five days, IFN-γ was measured by duoset ELISA (R&D Systems) according to manufacturer's recommendations. […]

In assay [1] the test system is CD3 primed primary human T lymphocytes. Nature of the assay: Effect of anti-OX40L antibodies on CD3 primed primary human T lymphocytes (IFN-γ release). It is filed as cell-based. As to conditions: 10 μg/mL, 5 days, four independent donors; versus human IgG4PE isotype control. As for the experimental part: In order to determine whether anti-OX40L had the ability to induce T-cell responses in the absence of OX40L, the assay below was performed using method adapted from Wang et al., Hybridoma (Larchmt)., 2009 Aug.; 28(4):269-76, in which an agonist anti-OX40L antibody was described.
A mouse anti-human CD3 antibody (Becton Dickinson) was diluted to 0.5 μg/mL in sterile PBS and 50 μL/well added to a 96 well high binding sterile plate and incubated overnight at 4° C.
Following overnight incubation, the plate was washed three times with 100 μL of sterile PBS.
T-cells (CD3 positive) were isolated from PBMC derived from leukoreduction system chambers (NHSBT) as described in Example 3. Following isolation, the cells were added to wells in 100 μL to achieve a final concentration of 1×10^5 cells/well.
Test antibodies were diluted in RPMI+10% FBS and 50 μL or 100 μL/well added to cell plate to achieve a final assay concentration of 10 μg/mL. In some cases, a mouse anti-human CD28 antibody (Becton Dickinson) was also added to wells at a final concentration of 1 μg/ml
The assay was incubated for 5 days. After 5 days, harvest supernatants and IFN-γ levels in supernatant were determined as described in Example 5.

Rhesus monkey OX40L, sequence (as listed by the source): as the sequence (P23510 with tags, fused parts or gaps) above, with R77Q, K95E counted along it

B1: 9H04 (hybridoma): murine/human chimeric anti-hOX40L antibody from hybridoma; VH SEQ ID No:66, VL SEQ ID No:80 (antibody, listed as Homo Sapiens, V domains shown)
VH: QVQLVESGGGLVKPGGSLRLSCAASRFTLSDYYMTWIRQAPGKGLEWVSYISSSGNTIYYADSVKGRFTISRDNAKNSLYLQMNSLRAEDTAVYYCARDLSGSYWDYYYGMDVWGQGTTVTVSS
VL: AIQLTQSPSSLSTSVGDRVTIACRASQGINNALAWYQQKPGKAPKLLIYDASSLESGVPSRFSGSGSGTDFTLTISSLQPEDFATYYCQQFNSYPRTFGQGTKVEIK
As for B1, in the assay with CHO-S expressed hOX40L, the “FACS Binding” value is given as “YES”.

B2: 2D10 (hybridoma): murine/human chimeric anti-hOX40L antibody purified from hybridoma supernatant; VH SEQ ID No:34, VL SEQ ID No:48 (antibody, listed as Homo Sapiens, V domains shown)
VH: EVQLVESGGGLVQPGGSLRLSCAASGFTFSNYAMNWVRQAPGKGLEWVSTISGSGGATRYADSVKGRFTISRDNSRNTVYLQMNSLRVEDTAVFYCTKDRLIMATVRGPYYYGMDVWGQGTTVTVSS
VL: DIQMTQSPSSLSASVGDRVTITCRASQSISSYLNWYQQKPGKAPNLLIYAASSLQSGVPSRFSGSGSETDFTLTISSLQPEDFATYYCQQSHSVSFTFGPGTKVDIK
With B2, the “FACS Binding” value with CHO-S expressed hOX40L was “YES”. Besides, the “Apparent Affinity hOX40L (nM)” value with recombinant hOX40L is “CNROR”. The “Apparent Affinity RhsOX40L (nM)” value on Rhesus monkey OX40L is “CNROR”.

B3: 10A07 (human): fully human anti-human OX40L antibody reformatted to IgG4-PE; VH SEQ ID No:2, VL SEQ ID No:16 (antibody, listed as Homo Sapiens, V domains shown)
VH: EVQLVESGGVLVQPGGSLRLSCAASGFTFSSYIMTWVRQAPGKGLEWVSGISGSGGGTYYADSMKGRFTISRDNSKNTLYLQMNSLRVEDTAVYYCAKDRLGPITLVRGGYYYGMDVWGQGTTVTVSS
VL: DIQMTQSPSSLSASVGDRVTITCRASQSISDYLNWYQQKPGKAPKFLIYAASSLQSGVPSRFSGSGSGTDFTLTVSSLQPEDFATYYCQQSYSTPRTFGQGTRVEIK
modifications: IgG4-PE constant region
With B3, the “Apparent Affinity hOX40L (nM)” value with recombinant hOX40L is reported as “CNROR”. Further, at Rhesus monkey OX40L, the “Apparent Affinity RhsOX40L (nM)” value is on record as “CNROR”. Also, the “IFN-γ release in PBMC/PBMC MLR” value in the assay on allogeneic PBMC/PBMC MLR was “inhibited IFN-γ release”. Moreover, the “IFN-γ release from CD3 primed T-cells in the absence of OX40L” value in assay [1] was “no effect”.

B4: 10A07 (hybridoma): murine/human chimeric anti-hOX40L antibody purified from hybridoma supernatant; VH SEQ ID No:2, VL SEQ ID No:16 (antibody, listed as Homo Sapiens, V domains shown)
VH: B3 VH
VL: B3 VL
Turning to B4, the “FACS Binding” value with CHO-S expressed hOX40L is given as “YES”. The “Apparent Affinity hOX40L (nM)” value with recombinant hOX40L is “CNROR”. The “Apparent Affinity RhsOX40L (nM)” value on Rhesus monkey OX40L was “CNROR”.

(Values after patent publication US9868789B2, “Synergistic combinations of OX40L antibodies for the treatment of GvHD” (Kymab Limited, priority 2015, dated 2018).)
